We go through one molecule from patent US20230079439A1 (University of California, published 2023).

Numbered stars: 1 amine (or outer) side, 2 acyl side, 3 side chain; on linkers, the order of the positions; unused ones are H or OH. Suc = O=C(CCC(=O)[*:2])[*:1]

For the assay, the target named is neurexins (NXs) located on the plasma membrane of INS-1E cells (rat). Nature of the assay: cell-based or functional assay.

With {PEG2000-Suc}-QQGEFLNYD-NH2 (also: dimer of two HSA-28 monomers bridged via PEG2000), the “EC50 of the increase of GSIS in INS-1E cells” value is 32 µM.
